From paper PMC12506977

Molecular target: Tetrahymena Bld10/CEP135 (Tetrahymena thermophila (endogenous in strain SB715))
Experiment: cryo-EM structure; single-particle analysis of mechanically disrupted (splayed) centrioles isolated from Tetrahymena, 10 mM Hepes pH 7.5; proximal A-C linker (class 1) with adjacent microtubule triplet regions; focused maps 3.6 to 3.8 Å (B-C junction 3.8 and 4.0 Å, A-B junction 5.8 Å); proteins assigned by fitting AlphaFold2 models of MS-detected proteins (COLORES)

Question: Which stoichiometry N does the source give for “Tetrahymena Bld10/CEP135 (natural protein)” here?
Answer: The stoichiometry N was 2.
